Results taken from article PMC3544974 (Structure (London, England : 1993), 2012).

B1: HBeAg construct Cp(-10)149, C48A, C107A (natural protein)
chain: SKLCLGWLWGMDIDPYKEFGATVELLSFLPSDFFPSVRDLLDTAAALYRDALESPEHASPHHTALRQAILCWGDLMTLATWVGTNLEDPASRDLVVSYVNTNVGLKFRQLLWFHISALTFGRETVLEYLVSFGVWIRTPPAYRPPNAPILSTLPETTVV

Legend:
[1] = molecular target: HBeAg used for crystallization: Cp(-10)149, C48A, C107A, G123A (Hepatitis B virus) (UniProt P03147); assay: crystal structure
AUC = molecular target: the molecule itself; assay: AUC

Molecule	stoichiometry N [1]	stoichiometry N (AUC)
HBeAg used for crystallization: Cp(-10)149, C48A, C107A, G123A (from UniProt P03147 1-149) (natural protein)	2	
B1		2
